Measured values as given in patent publication US5217864, “Replication initiator protein complex and methods of use thereof” (The Rockefeller University).

Target: OTF1/NFIII (UniProt P14859 P14859:1-743)
Test: EMSA; data not shown

Chain of OTF1/NFIII (P14859 whole entry, one chain of several): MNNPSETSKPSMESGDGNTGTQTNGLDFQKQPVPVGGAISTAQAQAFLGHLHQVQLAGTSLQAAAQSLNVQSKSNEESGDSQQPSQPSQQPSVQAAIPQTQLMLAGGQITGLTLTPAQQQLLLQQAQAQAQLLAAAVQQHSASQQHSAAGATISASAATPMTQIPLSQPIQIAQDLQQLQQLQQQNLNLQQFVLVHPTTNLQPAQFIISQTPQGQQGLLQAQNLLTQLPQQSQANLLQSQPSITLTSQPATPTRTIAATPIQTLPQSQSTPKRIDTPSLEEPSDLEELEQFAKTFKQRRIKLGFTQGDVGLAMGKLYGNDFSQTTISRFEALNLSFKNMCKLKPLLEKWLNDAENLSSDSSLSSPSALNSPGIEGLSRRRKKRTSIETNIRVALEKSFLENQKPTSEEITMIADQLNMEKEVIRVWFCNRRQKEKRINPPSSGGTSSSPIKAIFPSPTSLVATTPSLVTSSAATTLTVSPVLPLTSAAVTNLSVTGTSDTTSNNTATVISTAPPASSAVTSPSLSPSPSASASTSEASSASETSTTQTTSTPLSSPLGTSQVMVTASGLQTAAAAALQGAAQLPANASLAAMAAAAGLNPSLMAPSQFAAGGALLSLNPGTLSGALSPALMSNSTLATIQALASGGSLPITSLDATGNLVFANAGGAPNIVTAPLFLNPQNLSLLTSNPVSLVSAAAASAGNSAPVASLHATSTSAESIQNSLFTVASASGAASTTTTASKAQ

B1: OTF1 site at 5' end of 280 bp fragment (dsDNA)
DNA 1: ATTTTCAT
DNA 2: ATGAAAAT
- binding result: binds
